Consider six molecules from patent US9958461B2, “Detection of protein to protein interactions” (THE GOVERNING COUNCIL OF THE UNIVERSITY OF TORONTO, priority 2013, dated 2018).

Assay [1] relates to EGFR-Wt. Put plainly: MaMTH EGFR-interactor screen, lentiviral preys against EGFR-wildtype bait (interaction score). Particulars: ratio of EGFR-Wt mean to EGFR-L858R mean interaction score. In kind it is cell-based, human. The method, then:
(§1) After lentivirus harvest, target cells (stable 5×GAL4UAS-luciferase reporter-HEK293T cells) were infected at a multiplicity of infection (MOI) of around 0.3-0.4 to ensure single copy integration per cell. Cells were selected in puromycin for at least 48 h and transfected with either EGFR-wildtype or EGFR-L858R baits in triplicates. 24 h after transfection, cells were lysed and luciferase assays performed. On each set of interaction assays, various negative controls were included. To calculate a MaMTH-interaction scores, negative controls were averaged and the fold-change of luciferase activity compared to the averaged controls was calculated and defined as the interaction score.
(§2) Each set of experiments contains a defined set of negative controls in at least three replicates. Negative controls were chosen as such that there is a range of controls showing high-background luciferase activity (normally cytosolic proteins: Fabp5, Pex19) as well as medium-background luciferase activity (membrane-bound interactors: Pex7, GABBR2). Negative controls were averaged and the fold-change of luciferase activity was calculated. Using this method, we have a stringent cut-off and chose an interaction score >1 to be interacting proteins.
(§3) Our cut-off of 1 is based on fold-change difference in luciferase activity over averaged negative controls. Negative controls include cytosolic preys (which tend to promiscuously bind to many proteins), plasma membrane- and peroxisomal-prey proteins. In general, we chose stringent conditions by testing preys that tend to have high luciferase background with any bait tested, in order to generate high-confidence interaction data. […] Phosphorylated tyrosine residues on the receptor are typically docking sites for downstream cytoplasmic targets and recognized through SH2 or PTB domains^43.

Assay [2] addresses T1, EGFR-Wt (Homo sapiens, UniProt P00533).
T1 construct: with the advantage of testing full-length integral membrane proteins; (GGGGS)2 linker-Cub (human ubiquitin aa 35-76)-GAL4(1-147)-mNFkB(364-550) (C); expressed in transfected cells
Described as above. Particulars: MaMTH interaction score of prey with EGFR-Wt bait, mean. In kind it is cell-based. How it is done:
as §1, §2, §3

Assay [3] deals with T2, EGFR-L858R (Homo sapiens, UniProt P00533, L858R).
T2 construct: with the advantage of testing full-length integral membrane proteins; (GGGGS)2 linker-Cub (human ubiquitin aa 35-76)-GAL4(1-147)-mNFkB(364-550) (C); expressed in transfected cells
Put plainly: MaMTH EGFR-interactor screen, lentiviral preys against EGFR-L858R bait (interaction score). The format is cell-based. Particulars: MaMTH interaction score of prey with EGFR-L858R bait. How it is done: as §1, §2, §3

B1: TAB1 (protein, UniProt Q15750 1-504, looked up)
TGF-beta-activated kinase 1 …: MAAQRRSLLQSEQQPSWTDDLPLCHLSGVGSASNRSYSADGKGTESHPPEDSWLKFRSENNCFLYGVFNGYDGNRVTNFVAQRLSAELLLGQLNAEHAEADVRRVLLQAFDVVERSFLESIDDALAEKASLQSQLPEGVPQHQLPPQYQKILERLKTLEREISGGAMAVVAVLLNNKLYVANVGTNRALLCKSTVDGLQVTQLNVDHTTENEDELFRLSQLGLDAGKIKQVGIICGQESTRRIGDYKVKYGYTDIDLLSAAKSKPIIAEPEIHGAQPLDGVTGFLVLMSEGLYKALEAAHGPGQANQEIAAMIDTEFAKQTSLDAVAQAVVDRVKRIHSDTFASGGERARFCPRHEDMTLLVRNFGYPLGEMSQPTPSPAPAAGGRVYPVSVPYSSAQSTSKTSVTLSLVMPSQGQMVNGAHSASTLDEATPTLTNQSPTLTLQSTNTHTQSSSSSSDGGLFRSRPAHSLPPGEDGRVEPYVDFAEFYRLWSVDHGEQSVVTAP
In the case of B1, the Wt/L858R in assay [1] is 0.98. Moreover, the EGFR-Wt mean in assay [2] is reported as 5.84. Besides, the EGFR-L858R mean in assay [3] is given as 5.95.

B2: STAT5A (protein, UniProt P42229 1-794, looked up)
Signal transducer and …: MAGWIQAQQLQGDALRQMQVLYGQHFPIEVRHYLAQWIESQPWDAIDLDNPQDRAQATQLLEGLVQELQKKAEHQVGEDGFLLKIKLGHYATQLQKTYDRCPLELVRCIRHILYNEQRLVREANNCSSPAGILVDAMSQKHLQINQTFEELRLVTQDTENELKKLQQTQEYFIIQYQESLRIQAQFAQLAQLSPQERLSRETALQQKQVSLEAWLQREAQTLQQYRVELAEKHQKTLQLLRKQQTIILDDELIQWKRRQQLAGNGGPPEGSLDVLQSWCEKLAEIIWQNRQQIRRAEHLCQQLPIPGPVEEMLAEVNATITDIISALVTSTFIIEKQPPQVLKTQTKFAATVRLLVGGKLNVHMNPPQVKATIISEQQAKSLLKNENTRNECSGEILNNCCVMEYHQATGTLSAHFRNMSLKRIKRADRRGAESVTEEKFTVLFESQFSVGSNELVFQVKTLSLPVVVIVHGSQDHNATATVLWDNAFAEPGRVPFAVPDKVLWPQLCEALNMKFKAEVQSNRGLTKENLVFLAQKLFNNSSSHLEDYSGLSVSWSQFNRENLPGWNYTFWQWFDGVMEVLKKHHKPHWNDGAILGFVNKQQAHDLLINKPDGTFLLRFSDSEIGGITIAWKFDSPERNLWNLKPFTTRDFSIRSLADRLGDLSYLIYVFPDRPKDEVFSKYYTPVLAKAVDGYVKPQIKQVVPEFVNASADAGGSSATYMDQAPSPAVCPQAPYNMYPQNPDHVLDQDGEFDLDETMDVARHVEELLRRPMDSLDSRLSPPAGLFTSARGSLS
Consider B2, for which the Wt/L858R in assay [1] stood at 0.96. In assay [2], this molecule registered an EGFR-Wt mean of 3.12. This molecule also had an EGFR-L858R mean in assay [3] of 3.26.

B3: ZAP70 (protein, UniProt P43403 1-619, looked up)
Tyrosine-protein kinase ZAP-70: MPDPAAHLPFFYGSISRAEAEEHLKLAGMADGLFLLRQCLRSLGGYVLSLVHDVRFHHFPIERQLNGTYAIAGGKAHCGPAELCEFYSRDPDGLPCNLRKPCNRPSGLEPQPGVFDCLRDAMVRDYVRQTWKLEGEALEQAIISQAPQVEKLIATTAHERMPWYHSSLTREEAERKLYSGAQTDGKFLLRPRKEQGTYALSLIYGKTVYHYLISQDKAGKYCIPEGTKFDTLWQLVEYLKLKADGLIYCLKEACPNSSASNASGAAAPTLPAHPSTLTHPQRRIDTLNSDGYTPEPARITSPDKPRPMPMDTSVYESPYSDPEELKDKKLFLKRDNLLIADIELGCGNFGSVRQGVYRMRKKQIDVAIKVLKQGTEKADTEEMMREAQIMHQLDNPYIVRLIGVCQAEALMLVMEMAGGGPLHKFLVGKREEIPVSNVAELLHQVSMGMKYLEEKNFVHRDLAARNVLLVNRHYAKISDFGLSKALGADDSYYTARSAGKWPLKWYAPECINFRKFSSRSDVWSYGVTMWEALSYGQKPYKKMKGPEVMAFIEQGKRMECPPECPPELYALMSDCWIYKWEDRPDFLTVEQRMRACYYSLASKVEGPPGSTQKAEAACA
With B3, the Wt/L858R in assay [1] was found to be 1.04. For the same molecule, the EGFR-Wt mean in assay [2] came out at 16.92. Besides, the EGFR-L858R mean in assay [3] was 16.20.

B4: Cdh1 (protein, UniProt P12830 155-882, looked up)
Cadherin-1: DWVIPPISCPENEKGPFPKNLVQIKSNKDKEGKVFYSITGQGADTPPVGVFIIERETGWLKVTEPLDRERIATYTLFSHAVSSNGNAVEDPMEILITVTDQNDNKPEFTQEVFKGSVMEGALPGTSVMEVTATDADDDVNTYNAAIAYTILSQDPELPDKNMFTINRNTGVISVVTTGLDRESFPTYTLVVQAADLQGEGLSTTATAVITVTDTNDNPPIFNPTTYKGQVPENEANVVITTLKVTDADAPNTPAWEAVYTILNDDGGQFVVTTNPVNNDGILKTAKGLDFEAKQQYILHVAVTNVVPFEVSLTTSTATVTVDVLDVNEAPIFVPPEKRVEVSEDFGVGQEITSYTAQEPDTFMEQKITYRIWRDTANWLEINPDTGAISTRAELDREDFEHVKNSTYTALIIATDNGSPVATGTGTLLLILSDVNDNAPIPEPRTIFFCERNPKPQVINIIDADLPPNTSPFTAELTHGASANWTIQYNDPTQESIILKPKMALEVGDYKINLKLMDNQNKDQVTTLEVSVCDCEGAAGVCRKAQPVEAGLQIPAILGILGGILALLILILLLLLFLRRRAVVKEPLLPPEDDTRDNVYYYDEEGGGEEDQDFDLSQLHRGLDARPEVTRNDVAPTLMSVPRYLPRPANPDEIGNFIDENLKAADTDPTAPPYDSLLVFDYEGSGSEAASLSSLNSSESDKDQDYDYLNEWGNRFKKLADMYGGGEDD
Consider B4, for which the Wt/L858R in assay [1] stood at 0.94. The molecule further had an EGFR-Wt mean in assay [2] of 2.14. In assay [3], the EGFR-L858R mean was 2.27.

B5: CAMLG (protein, UniProt P49069 1-296, looked up)
Guided entry of tail-anchored …: MESMAVATDGGERPGVPAGSGLSASQRRAELRRRKLLMNSEQRINRIMGFHRPGSGAEEESQTKSKQQDSDKLNSLSVPSVSKRVVLGDSVSTGTTDQQGGVAEVKGTQLGDKLDSFIKPPECSSDVNLELRQRNRGDLTADSVQRGSRHGLEQYLSRFEEAMKLRKQLISEKPSQEDGNTTEEFDSFRIFRLVGCALLALGVRAFVCKYLSIFAPFLTLQLAYMGLYKYFPKSEKKIKTTVLTAALLLSGIPAEVINRSMDTYSKMGEVFTDLCVYFFTFIFCHELLDYWGSEVP
Take B5: in assay [1], the Wt/L858R is given as 1.00. Also, in assay [2], the EGFR-Wt mean came to 7.16. The EGFR-L858R mean in assay [3] is reported as 7.17.

B6: ABL2 (protein, UniProt P42684 2-1182, looked up)
Tyrosine-protein kinase ABL2: GQQVGRVGEAPGLQQPQPRGIRGSSAARPSGRRRDPAGRTTETGFNIFTQHDHFASCVEDGFEGDKTGGSSPEALHRPYGCDVEPQALNEAIRWSSKENLLGATESDPNLFVALYDFVASGDNTLSITKGEKLRVLGYNQNGEWSEVRSKNGQGWVPSNYITPVNSLEKHSWYHGPVSRSAAEYLLSSLINGSFLVRESESSPGQLSISLRYEGRVYHYRINTTADGKVYVTAESRFSTLAELVHHHSTVADGLVTTLHYPAPKCNKPTVYGVSPIHDKWEMERTDITMKHKLGGGQYGEVYVGVWKKYSLTVAVKTLKEDTMEVEEFLKEAAVMKEIKHPNLVQLLGVCTLEPPFYIVTEYMPYGNLLDYLRECNREEVTAVVLLYMATQISSAMEYLEKKNFIHRDLAARNCLVGENHVVKVADFGLSRLMTGDTYTAHAGAKFPIKWTAPESLAYNTFSIKSDVWAFGVLLWEIATYGMSPYPGIDLSQVYDLLEKGYRMEQPEGCPPKVYELMRACWKWSPADRPSFAETHQAFETMFHDSSISEEVAEELGRAASSSSVVPYLPRLPILPSKTRTLKKQVENKENIEGAQDATENSASSLAPGFIRGAQASSGSPALPRKQRDKSPSSLLEDAKETCFTRDRKGGFFSSFMKKRNAPTPPKRSSSFREMENQPHKKYELTGNFSSVASLQHADGFSFTPAQQEANLVPPKCYGGSFAQRNLCNDDGGGGGGSGTAGGGWSGITGFFTPRLIKKTLGLRAGKPTASDDTSKPFPRSNSTSSMSSGLPEQDRMAMTLPRNCQRSKLQLERTVSTSSQPEENVDRANDMLPKKSEESAAPSRERPKAKLLPRGATALPLRTPSGDLAITEKDPPGVGVAGVAAAPKGKEKNGGARLGMAGVPEDGEQPGWPSPAKAAPVLPTTHNHKVPVLISPTLKHTPADVQLIGTDSQGNKFKLLSEHQVTSSGDKDRPRRVKPKCAPPPPPVMRLLQHPSICSDPTEEPTALTAGQSTSETQEGGKKAALGAVPISGKAGRPVMPPPQVPLPTSSISPAKMANGTAGTKVALRKTKQAAEKISADKISKEALLECADLLSSALTEPVPNSQLVDTGHQLLDYCSGYVDCIPQTRNKFAFREAVSKLELSLQELQVSSAAAGVPGTNPVLNNLLSCVQEISDVVQR
As for B6, the Wt/L858R in assay [1] was found to be 1.04. In assay [2], this molecule returned an EGFR-Wt mean of 4.63. Further, the EGFR-L858R mean in assay [3] was determined as 4.47.
